According to the supplement of paper PMC7877785:
± gives the uncertainty stated by the source.

Experiment: self-splicing fitness, log relative to wild type (ln ratio); higher = more splicing; Tetrahymena group I intron in knt gene, E. coli kanamycin selection, DiMSum; sequences stand for … in CUCUCU…GGAGGGAAAAGUUAUCAGGCAUGCACCUGGUAGCUAGUCUUUAAACCAAUAGAUUGCAUCGGUUUAAAAGGCAAGACCGUCAAAUUGCGGGAAAGGGGUCAACAGCCGUUCAGUACCAAGUCUCAGGGGAAACUUUGAGAUGGCCUUGCAAAGGGUAUGGUAAUAAGCUGACGGACAUGGUCCUAACCACGCAGCCAAGUCCUAAGUCAACAGAUCUUCUGUUGAUAUGGAUGCAGUUCACAGACUAAAUGUCGGUCGGGGAAGAUGUAUUCUUCUCAUAAGAUAUAGUCGGACCUCUCCUUAAUGGGAGCUAGCGGAUGAAGUGAUGCAACACUGGAGCCGCUGGGAACUAAUUUGUAUGCGAAAGUAUAUUGAUUAGUUUUGGAGUACUCGUGGUCG
Method in brief: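 A randomised library covering all eight P1ex-region intron nucleotides was built with the intron in the knt kanamycin-resistance gene on pET-22b(+) and held in E. coli BL21(DE3). Cells were grown overnight at 37°C or 30°C on LB agar, with or without 25 μg/mL kanamycin, plus 100 μg/mL carbenicillin, 50 μM IPTG and 0.2% rhamnose, and pooled colonies were amplicon-sequenced on an Illumina HiSeq 2500. DiMSum fitness is the error-weighted combination of wild-type-normalised replicate fold changes, kanamycin versus none.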

Row | Sequence | self-splicing fitness (ln) (30 °C) | self-splicing fitness (ln) (37 °C)
1 | CUGAAGCAAUAUUACGAUGA | -3.52 ± 0.21 | -1.92 ± 0.16
2 | CUCUAGCAAUAUUACGACGG | -2.32 ± 0.18 | -1.98 ± 0.29
3 | GUAGAGCAAUAUUACGUAAC | -0.96 ± 0.11 | -0.246 ± 0.14
4 | GCCAAGCAAUAUUACGAACC | -2.03 ± 0.12 | -0.423 ± 0.14
5 | GCAUAGCAAUAUUACGAAUC | -2.12 ± 0.33 | -1.55 ± 0.32
6 | UUCAAGCAAUAUUACGGCGG | -0.903 ± 0.076 | -0.416 ± 0.1
7 | GAAUAGCAAUAUUACGCCAA | -2.44 ± 0.23 | -1.39 ± 0.16
8 | AGAGAGCAAUAUUACGACAC |  | -1.4 ± 0.26
9 | UGGGAGCAAUAUUACGCGAA | -1.59 ± 0.23 | -1.67 ± 0.34
10 | CUUAAGCAAUAUUACGCGCA | -3.58 ± 0.35 | 
11 | AACAAGCAAUAUUACGAUUU | 0.129 ± 0.056 | 0.672 ± 0.077
12 | CCAUAGCAAUAUUACGUGUG | -2.23 ± 0.09 | -1.07 ± 0.08
13 | GUUAAGCAAUAUUACGUGGU | -2.79 ± 0.15 | -2.35 ± 0.19
14 | AUUAAGCAAUAUUACGCGAG | -1.27 ± 0.1 | -0.38 ± 0.097
15 | UGUAAGCAAUAUUACGAGUA | -1.48 ± 0.11 | -0.65 ± 0.12
16 | CUGCAGCAAUAUUACGCGCC | -3.33 ± 0.33 | -2.17 ± 0.24
17 | GUGGAGCAAUAUUACGAAUG | -3.75 ± 0.4 | -1.77 ± 0.37
18 | CGUCAGCAAUAUUACGAAUA | -2.58 ± 0.16 | -1.98 ± 0.16
19 | AGAGAGCAAUAUUACGUGAC |  | -1.43 ± 0.42
20 | CGGAAGCAAUAUUACGUCCU | 0.17 ± 0.12 | 0.626 ± 0.12
21 | UUGAAGCAAUAUUACGGCGG | 0.15 ± 0.11 | 0.55 ± 0.13
22 | UUCCAGCAAUAUUACGGCGG | -3.09 ± 0.17 | -2.72 ± 0.27
23 | CCUUAGCAAUAUUACGAGAC |  | -1.83 ± 0.25
24 | UUGAAGCAAUAUUACGCGUA | -0.169 ± 0.069 | -0.247 ± 0.098
25 | UCCGAGCAAUAUUACGUUCG | -2.69 ± 0.49 | -1.78 ± 0.42
26 | UGGGAGCAAUAUUACGGCUA | -0.66 ± 0.21 | -0.59 ± 0.15

Row | Sequence | self-splicing fitness (ln) (30 °C) | self-splicing fitness (ln) (37 °C)
27 | CUUUAGCAAUAUUACGCGGC | -2.41 ± 0.35 | -0.897 ± 0.17
28 | AAGAAGCAAUAUUACGUGAG | -1.35 ± 0.046 | -0.828 ± 0.075
29 | ACGUAGCAAUAUUACGUAGG | -3.76 ± 0.18 | -1.73 ± 0.13
30 | ACCGAGCAAUAUUACGCCAA |  | -2.01 ± 0.3
31 | GCAAAGCAAUAUUACGUGUU | -1.88 ± 0.086 | -1.03 ± 0.11
32 | CUUUAGCAAUAUUACGAUUG | -0.504 ± 0.12 | 0.118 ± 0.17
33 | CCGGAGCAAUAUUACGUGUA | -2.99 ± 0.2 | -2.61 ± 0.25
34 | CCACAGCAAUAUUACGUGGC | -3.84 ± 0.12 | -2.86 ± 0.12
35 | AUCAAGCAAUAUUACGGUGA | -1.36 ± 0.096 | -0.818 ± 0.1
36 | UAACAGCAAUAUUACGACAG | -0.741 ± 0.052 | -0.435 ± 0.073
37 | ACAUAGCAAUAUUACGCUGG | -2.36 ± 0.11 | -1.46 ± 0.12
38 | AUCGAGCAAUAUUACGUCAA | -2.72 ± 0.25 | -1.3 ± 0.29
39 | UCGCAGCAAUAUUACGGACA | -1.38 ± 0.17 | -1.83 ± 0.14
40 | GGACAGCAAUAUUACGUCUU | -3.29 ± 0.091 | -1.9 ± 0.099
41 | AUCUAGCAAUAUUACGGCGA | -0.505 ± 0.14 | -0.448 ± 0.16
42 | UGCCAGCAAUAUUACGGUAA | -1.15 ± 0.055 | -0.9 ± 0.059
43 | AUCUAGCAAUAUUACGCAAA | -2.59 ± 0.29 | -3.24 ± 0.39
44 | CAGCAGCAAUAUUACGCCGA | -1.81 ± 0.12 | -0.864 ± 0.091
45 | AACCAGCAAUAUUACGUCAC | -3.92 ± 0.13 | -2.66 ± 0.13
46 | UAGCAGCAAUAUUACGUACU | -1.74 ± 0.1 | -0.434 ± 0.1
47 | AAGGAGCAAUAUUACGAACU | -1.63 ± 0.15 | 0.581 ± 0.21
48 | CGUUAGCAAUAUUACGUAAU | -2.88 ± 0.24 | -1.63 ± 0.25
49 | AUCAAGCAAUAUUACGGCUU | -2.87 ± 0.13 | -1.54 ± 0.14
50 | AGCAAGCAAUAUUACGAAGU | -3.42 ± 0.27 | -1.58 ± 0.25
51 | GUCGAGCAAUAUUACGACCU |  | -1.74 ± 0.26
52 | AAAGAGCAAUAUUACGACUC | -1.4 ± 0.071 | -0.537 ± 0.1

Row | Sequence | self-splicing fitness (ln) (30 °C) | self-splicing fitness (ln) (37 °C)
53 | CGCGAGCAAUAUUACGAUUA | -3.1 ± 0.3 | -1.99 ± 0.35
54 | UUUAAGCAAUAUUACGCGGA | -1.6 ± 0.098 | -0.0901 ± 0.084
55 | CUUGAGCAAUAUUACGCUAC | -2.82 ± 0.49 | -2.02 ± 0.45
56 | AGACAGCAAUAUUACGGAUC | -3.16 ± 0.2 | -0.56 ± 0.17
57 | UCUCAGCAAUAUUACGGUGC | -3.17 ± 0.24 | -3.08 ± 0.23
58 | GGCCAGCAAUAUUACGACAU | -1.21 ± 0.013 | -0.437 ± 0.032
59 | AGUAAGCAAUAUUACGUCUG | -3.21 ± 0.17 | -1.49 ± 0.12
60 | GGUCAGCAAUAUUACGAUCA | -0.0175 ± 0.14 | 0.178 ± 0.13
61 | UCAAAGCAAUAUUACGCUAU | -3.44 ± 0.22 | -1.41 ± 0.18
62 | CGGAAGCAAUAUUACGUAAA | -2.94 ± 0.21 | -1.79 ± 0.23
63 | GGUAAGCAAUAUUACGUGGU | -1.33 ± 0.29 | -2.48 ± 0.21
64 | UUGCAGCAAUAUUACGACCA | -1.8 ± 0.24 | -0.0142 ± 0.18
65 | GUUGAGCAAUAUUACGACGU | -0.544 ± 0.11 | -0.345 ± 0.12
66 | UCCGAGCAAUAUUACGGGCC | -3.8 ± 0.3 | -2.94 ± 0.35
67 | CGGUAGCAAUAUUACGUUCG | -2.19 ± 0.14 | -1.99 ± 0.24
68 | UCAGAGCAAUAUUACGCGUA | -2.57 ± 0.32 | -0.569 ± 0.16
69 | UCUCAGCAAUAUUACGGUAC | -3.18 ± 0.35 | -2.52 ± 0.34
70 | AUACAGCAAUAUUACGUAAG | -0.561 ± 0.05 | -0.0861 ± 0.068
71 | GAUUAGCAAUAUUACGGGUA | -1.98 ± 0.13 | -1.04 ± 0.12
72 | CGAUAGCAAUAUUACGAAAG | -0.907 ± 0.089 | -0.699 ± 0.12
73 | GGCAAGCAAUAUUACGGCGG | -2.44 ± 0.19 | -1.13 ± 0.2
74 | UGCUAGCAAUAUUACGGUAA | -1.03 ± 0.15 | -1.47 ± 0.12
75 | CUUAAGCAAUAUUACGAAGC | -3.09 ± 0.36 | -2.17 ± 0.31
76 | UCGGAGCAAUAUUACGAGCG | -2.48 ± 0.23 | -0.586 ± 0.23
77 | AAUAAGCAAUAUUACGUGCG | -1.1 ± 0.065 | -0.488 ± 0.083
78 | GGCAAGCAAUAUUACGCGUU | -0.907 ± 0.075 | -0.815 ± 0.1
